Patent publication US20150203556A1 (UAB RESEARCH FOUNDATION, published 2015)

B2: IL-20R1-FC (Fc fusion)
chain: VPCVSGGLPKPANITFLSINMKNVLQWTPPEGLQGVKVTYTVQYFIYGQKKWLNKSECRNINRTYCDLSAETSDYEHQYYAKVKAIWGTKCSKWAESGRFYPFLETQIGPPEVALTTDEKSISVVLTAPEKWKRNPEDLPVSMQQIYSNLKYNVSVLNTKSNRTWSQCVTNHTLVLTWLEPNTLYCVHVESFVPGPPRRAQPSEKQCARTLKDQSSEFKAKGSGGGGPSVFIFPPKIKDVLMISLSPIVTCVVVDVSEDDPDVQISWFVNNVEVHTAQTQTHREDYNSTLRVVSALPIQHQDWMSGKEFKCKVNNKDLPAPIERTISKPKGSVRAPQVYVLPPPCEEMTKKQVTLYCMVTDFMPEDIYVEWTNNGKTELNYKNTEPVLDSDGSYFMYSKLRVEKKNWVERNSYSCSVVHEGLHNHHTTKSFSRTPGKGLEASGGLNDIFEAQKIEWHEGTGHHHHHH
notes: also called IL-20R-fc

What was measured:
IL-20R1 triple mutant M3 = target: T1, IL-20R1 triple mutant M3 (UniProt Q9UHF4 29-245); assay: SPR, IL-19 co-injected with M3 over an IL-20R2 coupled Biacore chip
T1 construct: range 29-245; also called IL-20R1 site 3 mutant
T1 sequence (looked up): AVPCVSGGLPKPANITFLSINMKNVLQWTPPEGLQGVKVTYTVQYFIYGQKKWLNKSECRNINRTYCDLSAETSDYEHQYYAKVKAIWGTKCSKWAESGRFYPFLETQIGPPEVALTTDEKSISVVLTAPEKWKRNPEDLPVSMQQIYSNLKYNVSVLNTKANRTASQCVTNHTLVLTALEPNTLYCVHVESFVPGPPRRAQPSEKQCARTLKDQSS
Method: FIGS. 9A-9D show the IL-20 site 3 interface is essential and distinct from other complexes. FIG. 9A is a ribbon diagram showing the site 3 interface between IL-20R1 and IL-20R2. FIG. 9B is a graph showing the importance of the site 3 interface in ternary complex formation. SPR sensograms obtained by injecting cytokines (IL-19 or IL-20, at 250 nM) and/or receptors (IL-20R1 or M3, at 425 nM), as labeled on the figure, over an IL-20R2 coupled biacore chip. Injection of IL-20+IL-20R1 results in a large response consistent with ternary complex formation. However, injection of IL-20+M3, an IL-20R1 site 3 mutant with S190^IL-20R1, W194^IL-20R1, and W207^IL-20R1 mutated to alanine drastically reduces binding due to disruption of ternary complex formation. Similar results are observed for complex formation by IL-19. FIG. 9C is a ribbon diagram of the superposition of the D2 domains of GHR site 1, IL-6R, and IL-20R1. The positions of the D2 domains of GHR site2, GP130, and IL-20R2 are shown, along with a schematic of the differences in their orientations. FIG. 9D is a ribbon diagram showing the putative model of the IL-22/IL-22R1/IL-10R2 complex based on the IL-20 ternary complex structure. […]

IL-20 [1] = target: T2, IL-20 (human, UniProt Q9NYY1 25-176); assay: SPR, site KD as listed in Table 5
T2 construct: The crystal model holds residues 24-176; also called Interleukin-20; IL-20b
T2 sequence: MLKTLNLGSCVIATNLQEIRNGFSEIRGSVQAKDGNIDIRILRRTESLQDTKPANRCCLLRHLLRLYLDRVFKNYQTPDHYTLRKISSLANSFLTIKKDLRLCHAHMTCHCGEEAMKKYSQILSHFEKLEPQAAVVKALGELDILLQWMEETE

IL-19 [2] = target: T3, IL-19 (human, UniProt Q9UHD0 25-177); assay: SPR, IL-19 (10 µM, 2-fold diluted to 0.625 µM) injected over IL-20R1 (IL-20R1-fc in Table 4)
T3 construct: also called Interleukin-19; IL-19a
T3 sequence: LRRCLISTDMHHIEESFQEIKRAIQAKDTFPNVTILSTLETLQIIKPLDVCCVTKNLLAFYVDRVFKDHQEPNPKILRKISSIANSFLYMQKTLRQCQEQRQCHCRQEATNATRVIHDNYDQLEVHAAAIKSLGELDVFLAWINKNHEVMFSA
Method: (§1) FIGS. 12A-12H are graphs showing IL19/IL-20 receptor interactions and complex stability. SPR sensorgrams, data fits (black lines), KD values, and residual errors obtained for complexes described at the top of each panel. Panels are labeled as injected soluble proteins, followed by a semicolon (:), then the protein coupled to chip surface, IL-20R1 or IL-20R2. FIGS. 12A and 12B show injection of IL-19 and IL-20 (max conc.=10 μM, 2 fold diluted to 0.625 μM) over IL-20R1. FIGS. 12C and 12D show injection of IL-19 (max conc.=500 nM, 2-fold diluted to 3.91 nM) or IL-20 (max conc.=2000 nM, 2-fold diluted to 62.5 nM) over IL-20R2. FIGS. 12E-12H show IL-19 and IL-20 (fixed at 250 nM) mixed with different concentrations of IL-20R1, or IL-22R1, (max conc.=1000 nM, 2-fold diluted to 7.81 nM) and injected over IL-20R2. To estimate R1 chain affinity/complex stability, the contribution of the ligand was removed by using the 250 nM IL-19, or IL-20, sensorgram as the blank subtraction. All sensorgrams were fit to 1:1 binding models.
(§2) Surface Plasmon Resonance Experiments SPR experiments were performed on Biacore T-100, and T-200, (GE healthcare, Waukesha, Wis.) systems. […] Soluble proteins were injected for 75-90 seconds (30 uL/min) over the surfaces, and the dissociation phase was followed for 75-120 seconds depending on the stability of the complex being analyzed. […]

IL-20 [3] = target: T2, IL-20; assay: SPR (Biacore), IL-20 (10-0.625 µM) over IL-20R1-fc captured by anti-FC Ab
Method: as §1, §2

IL-20 [4] = target: T2, IL-20; assay: SPR (Biacore), IL-20 over amine coupled IL-20R2, equilibrium affinity (no rate constants)
IL-19 [5] = target: T3, IL-19; assay: SPR (Biacore), IL-19 over amine coupled IL-20R2, 1:1 fit
Method: as §1
Surface Plasmon Resonance Experiments SPR experiments were performed on Biacore T-100, and T-200, (GE healthcare, Waukesha, Wis.) systems. Soluble IL-20R2 was amine coupled (100-130 RU) to CM5 research grade biacore chips in 10 mM sodium acetate, pH 5.0. IL-20R1-FC and IL-20R2-FC were coupled (60-120 RU) to CM5 chips using an anti-FC Ab coupling kit using the manufacturer's instructions (GE healthcare, Waukesha, Wis.). All binding experiments were performed in running buffer consisting of 10 mM Hepes, pH 7.4, 150 mM NaCl, 0.04% P20, and 0.1 mg/mL bovine serum albumin (Sigma, St. Louis, Mo.). No regeneration was performed between sample injections on IL-20R2 amine-coupled surfaces. IL-20R1-FC and IL-20R2-FC surfaces were regenerated after each sample injection with a 3-minute injection of glycine, pH 1.7. Soluble proteins were injected for 75-90 seconds (30 uL/min) over the surfaces, and the dissociation phase was followed for 75-120 seconds depending on the stability of the complex being analyzed. […]

IL-20R1-FC = target: B2; assay: SPR co-injection: IL-20 (1000-31.25 nM) with soluble IL-20R2 fixed at 500 nM over IL-20R1-FC surface, 1:1 fit
Method: (§3) FIGS. 13A-13D are graphs showing stability of IL-19 and IL-20 ternary complexes. Stability of the ternary complexes were determined by co-injecting IL-19+soluble IL-20R2 (FIGS. 13B and 13D), or IL-20+soluble IL-20R2 (FIGS. 13A and 13C), over an IL-20R1-FC coupled surface. The concentration of soluble IL-20R2 in these experiments was fixed at 500 nM. IL-19 and IL-20 concentrations varied from 1000 nM to 31.25 nM (2 fold dilutions). IL-19/soluble IL-20R2 and IL-20/IL-20R2 were also injected over an IL-22R1 coupled surface. The SPR sensorgrams are labeled as injected proteins, followed by a semicolon (:), then the protein coupled to the chip surface, IL-20R1 or IL-22R1. All sensograms yielding binding responses were fit to 1:1 binding models.
(§4) Surface Plasmon Resonance Experiments SPR experiments were performed on Biacore T-100, and T-200, (GE healthcare, Waukesha, Wis.) systems. Soluble IL-20R2 was amine coupled (100-130 RU) to CM5 research grade biacore chips in 10 mM sodium acetate, pH 5.0. IL-20R1-FC and IL-20R2-FC were coupled (60-120 RU) to CM5 chips using an anti-FC Ab coupling kit using the manufacturer's instructions (GE healthcare, Waukesha, Wis.). All binding experiments were performed in running buffer consisting of 10 mM Hepes, pH 7.4, 150 mM NaCl, 0.04% P20, and 0.1 mg/mL bovine serum albumin (Sigma, St. Louis, Mo.). No regeneration was performed between sample injections on IL-20R2 amine-coupled surfaces. IL-20R1-FC and IL-20R2-FC surfaces were regenerated after each sample injection with a 3-minute injection of glycine, pH 1.7. Soluble proteins were injected for 75-90 seconds (30 uL/min) over the surfaces, and the dissociation phase was followed for 75-120 seconds depending on the stability of the complex being analyzed. Where possible, the resultant sensorgrams were fit to 1:1 binding models using Biacore T-200 evaluation software version 1.

IL-22R1 (sIL-22R1DDQ) = target: T4, IL-22R1 (sIL-22R1DDQ) (Homo sapiens (Human), UniProt Q8N6P7 16-226, limits assumed); assay: SPR co-injection: IL-20 (1000-31.25 nM) with soluble IL-20R2 fixed at 500 nM over IL-22R1 coupled surface, 1:1 fit
T4 chain: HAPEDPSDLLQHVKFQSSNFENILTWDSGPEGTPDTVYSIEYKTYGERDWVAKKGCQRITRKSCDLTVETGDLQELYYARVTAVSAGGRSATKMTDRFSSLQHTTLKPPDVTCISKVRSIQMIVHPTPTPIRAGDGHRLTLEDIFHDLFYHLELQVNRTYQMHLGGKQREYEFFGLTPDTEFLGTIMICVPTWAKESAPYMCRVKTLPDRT
Method: as §3, §4

B1: IL-19/IL-20R2 binary complex (other)
chain 1: LRRCLISTDMHHIEESFQEIKRAIQAKDTFPNVTILSTLETLQIIKPLDVCCVTKNLLAFYVDRVFKDHQEPNPKILRKISSIANSFLYMQKTLRQCQEQRQCHCRQEATNATRVIHDNYDQLEVHAAAIKSLGELDVFLAWINKNHEVMFSA
chain 2: DEVAILPAPQQLSVLSTNMKHLLMWSPVIAPGETVYYSVEYQGEYESLYTSHIWIPSSWCSLTEGPECDVTDDITATVPYNLRVRATLGSQTSAWSILKHPFNRQSTILTRPGMEITKDGFHLVIELEDLGPQFEFLVAYWRREPGAEEHVKMVRSGGIPVHLETMEPGAAYCVKAQTFVKAIGRYSAFSQTECVEVQGEA
notes: IL-19 with IL-20R2 that carries no FC: amine coupled on the chip, or soluble; also called IL-19+soluble IL-20R2
binding result (IL-20R1 triple mutant M3): no binding (tested: 425 nM M3 with 250 nM IL-19)

B2
Kd (IL-20 [1]): ~9000 nM | binding result (IL-19 [2]): no binding (tested: 10 µM) | Kd (IL-20 [3]): ~9000 nM

B3: soluble IL-20R2 (receptor)
chain: DEVAILPAPQQLSVLSTNMKHLLMWSPVIAPGETVYYSVEYQGEYESLYTSHIWIPSSWCSLTEGPECDVTDDITATVPYNLRVRATLGSQTSAWSILKHPFNRQSTILTRPGMEITKDGFHLVIELEDLGPQFEFLVAYWRREPGAEEHVKMVRSGGIPVHLETMEPGAAYCVKAQTFVKAIGRYSAFSQTECVEVQGEA
notes: also called IL-20R2* (amine coupled IL-20R2)
Kd (IL-20 [4]): 870 nM | Kd (IL-19 [5]): 36.3 nM | koff (IL-19 [5]): 0.0398 s⁻¹ | kon (IL-19 [5]): 1.1e+06 M⁻¹ s⁻¹

B4: IL-20/IL-20R2 binary complex (other)
chain 1: MLKTLNLGSCVIATNLQEIRNGFSEIRGSVQAKDGNIDIRILRRTESLQDTKPANRCCLLRHLLRLYLDRVFKNYQTPDHYTLRKISSLANSFLTIKKDLRLCHAHMTCHCGEEAMKKYSQILSHFEKLEPQAAVVKALGELDILLQWMEETE
chain 2: DEVAILPAPQQLSVLSTNMKHLLMWSPVIAPGETVYYSVEYQGEYESLYTSHIWIPSSWCSLTEGPECDVTDDITATVPYNLRVRATLGSQTSAWSILKHPFNRQSTILTRPGMEITKDGFHLVIELEDLGPQFEFLVAYWRREPGAEEHVKMVRSGGIPVHLETMEPGAAYCVKAQTFVKAIGRYSAFSQTECVEVQGEA
notes: also called 20 + 20R2; IL-20+soluble IL-20R2
Kd (IL-20R1-FC): 1070 nM | koff (IL-20R1-FC): 0.0168 s⁻¹ | kon (IL-20R1-FC): 15700 M⁻¹ s⁻¹ | Kd (IL-22R1 (sIL-22R1DDQ)): 1160 nM | koff (IL-22R1 (sIL-22R1DDQ)): 0.238 s⁻¹ | kon (IL-22R1 (sIL-22R1DDQ)): 205000 M⁻¹ s⁻¹
